Experimental data taken from patent US20220177596A1 (Bristol-Myers Squibb, published 2022).
Read-outs that look alike come from different tables or passages of the source.

T1: hCD32b-His (human, UniProt P31994 43-217)
T1 construct: Generated in house; captured on anti-His Fab; also called FcgRIIb
T1 sequence: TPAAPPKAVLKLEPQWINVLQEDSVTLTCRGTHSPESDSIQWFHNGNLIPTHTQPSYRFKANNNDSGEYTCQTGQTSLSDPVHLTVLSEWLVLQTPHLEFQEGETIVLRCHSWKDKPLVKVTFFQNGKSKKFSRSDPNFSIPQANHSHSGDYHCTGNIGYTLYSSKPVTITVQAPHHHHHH


Assays:
[1] = molecular target: human CD40 on primary human cells (tonsillar B cells, immature dendritic cells) (human, UniProt P25942 21-277); assay: cell-based or functional assay
hCD64-His [2] = molecular target: T2, hCD64-His (human, UniProt P12314 16-288, limits assumed); assay: SPR
T2 construct: Generated in house; captured on anti-His Fab; also called hFcgRI; FcgRI
Procedure: (§1) FCGR BINDING SPR: FcgR binding can be measured in vitro using purified FcgRs using methods such as BIAcore™ surface plasmon resonance (SPR). One method tests the binding of purified antibodies to His-tagged FcgR proteins (FcgR-His) which are captured on the immobilized Fab fragment of an anti-His antibody. These experiments are performed on either a BIAcore™ T100 or BIAcore™ T200 instrument (GE Healthcare Life Sciences, Marlborough, Mass.) at 25° C. The Fab fragment from a murine anti-6×His antibody (generated in house) is immobilized on a CMS sensor chip using standard ethyl(dimethylaminopropyl) carbodiimide (EDC)/N-hydroxysuccinimide (NHS) chemistry with ethanolamine blocking, to a density of ˜3000 RU in a running buffer of 10 mM HEPES pH 7.4, 150 mM NaCl, 3 mM EDTA, 0.05% surfactant p20 (HBS-EP+). All remaining studies are performed using a running buffer of 10 mM NaPO4, 130 mM NaCl, 0.05% p20 (PBS-T) pH 7.1. Various FcγR proteins containing a C-terminal 6× poly-histidine tag (generated in house) are captured on this surface (typically using FcgR-his protein concentration of ˜7 μg/ml) using a contact time of 30 sec at 10 μl/min. Various concentrations of purified antibody are tested for binding, for example using an association time of 120 seconds at 30 μl/min, and a dissociation time of 120 seconds at 30 μl/min. FcgR proteins tested in these studies include the “high affinity” FcgR CD64 (hFcgRI), as well as the “low affinity” FcgRs CD32a-H131 (FcgRIIa-H131), CD32a-R131 (FcgRIIa-R131), CD32b (FcgRIIb), CD16a-V158 (FcgRIIIa-V158), and CD16b-NA2 (FcgRIIIb-NA2).

human-CD40 monomer [3] = molecular target: T3, human-CD40 monomer (human, UniProt P25942 21-193, limits assumed); assay: SPR, Ab captured on protein A, CD40 monomer analyte
T3 construct: also called hCD40-monomer; human-CD40-monomer protein
Procedure: These chimeric antibodies were tested for CD40 and FcgR binding by SPR, as well as for iDC activation.

human-CD40 monomer [4] = molecular target: T3, human-CD40 monomer; assay: as above; remark: listed apart in the source
hCD64-His [5] = molecular target: T2, hCD64-His; assay: SPR (BIAcore): 7 µg/ml hCD64-His captured on an anti-His Fab surface, 1 µM antibody as analyte
Procedure: as §1

hCD32b-His = molecular target: T1, hCD32b-His; assay: SPR
Procedure: as §1

T2 sequence (P12314 other isoform, or with tags, fused parts or gaps limits assumed): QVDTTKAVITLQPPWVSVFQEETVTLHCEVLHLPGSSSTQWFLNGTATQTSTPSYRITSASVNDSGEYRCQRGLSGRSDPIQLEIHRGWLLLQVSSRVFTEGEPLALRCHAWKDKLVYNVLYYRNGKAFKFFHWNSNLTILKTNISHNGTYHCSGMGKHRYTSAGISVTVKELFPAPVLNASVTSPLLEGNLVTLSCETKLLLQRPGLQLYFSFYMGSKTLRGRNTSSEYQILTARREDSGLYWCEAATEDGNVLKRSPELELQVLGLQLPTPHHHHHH
T3 sequence (P25942 21-193 limits assumed): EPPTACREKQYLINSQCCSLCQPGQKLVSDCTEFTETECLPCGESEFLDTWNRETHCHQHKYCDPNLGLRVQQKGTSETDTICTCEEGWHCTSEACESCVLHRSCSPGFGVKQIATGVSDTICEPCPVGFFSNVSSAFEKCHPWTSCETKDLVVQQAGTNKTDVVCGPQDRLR
Sequence of human CD40 on primary human cells (tonsillar B cells, immature dendritic cells) (P25942 21-277 limits assumed): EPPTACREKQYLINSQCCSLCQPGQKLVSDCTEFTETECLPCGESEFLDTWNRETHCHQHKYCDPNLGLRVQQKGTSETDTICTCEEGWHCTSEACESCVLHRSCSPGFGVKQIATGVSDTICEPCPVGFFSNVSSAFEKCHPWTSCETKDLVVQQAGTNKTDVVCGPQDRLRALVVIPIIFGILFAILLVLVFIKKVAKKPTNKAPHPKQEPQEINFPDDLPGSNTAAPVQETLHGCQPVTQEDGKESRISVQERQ

Binder	IC50 for inhibition of proliferation of B cells, CD40L Trimer [1]	IC50 for inhibition of proliferation of B cells, CHO CD40L [1]	binding result (hCD64-His [2])	Kd (human-CD40 monomer [3])	koff (human-CD40 monomer [3])	kon (human-CD40 monomer [3])	Kd (human-CD40 monomer [4])	koff (human-CD40 monomer [4])	kon (human-CD40 monomer [4])	binding result (hCD64-His [5])	binding result (hCD32b-His)
Y1238-P238K (antibody, human IgG1, kappa, Chimeric; also called chimeric Y1238-P238K) heavy: not shown light: DIVMTQSHKFMSTSVGDRVSITCKASQDVRTGVAWYQQKPGQSPKLLIYSASYRNTGVPDRFTGSRSGTDFTFTISSVQAEDLAVYYCQQHYSPPYTFGGGTKLEIKRTVAAPSVFIFPPSDEQLKSGTASVVCLLNNFYPREAKVQWKVDNALQSGNSQESVTEQDSKDSTYSLSSTLTLSKADYEKHKVYACEVTHQGLSSPVTKSFNRGEC	3.4 ng/mL	18.4 ng/mL	binds	2.6 nM	0.00026 s⁻¹	97000 M⁻¹ s⁻¹	–	–	–	–	–
Y1238-CTza (antibody, human IgG1, kappa, Chimeric; also called chimeric Y1238 CTza) heavy: not shown light: DIVMTQSHKFMSTSVGDRVSITCKASQDVRTGVAWYQQKPGQSPKLLIYSASYRNTGVPDRFTGSRSGTDFTFTISSVQAEDLAVYYCQQHYSPPYTFGGGTKLEIKRTVAAPSVFIFPPSDEQLKSGTASVVCLLNNFYPREAKVQWKVDNALQSGNSQESVTEQDSKDSTYSLSSTLTLSKADYEKHKVYACEVTHQGLSSPVTKSFNRGEC	–	–	binds	2.3 nM	0.00023 s⁻¹	100000 M⁻¹ s⁻¹	–	–	–	–	–
5F11-45-CTza (antibody, human IgG1, kappa) heavy: not shown light: DIVLTQSPDSLAVSLGERATINCRASKNVDSYGNSFMHWYQQKPGQPPKLLIYRASNLESGVPDRFSGSGSGTDFTLTISSLQAEDVAVYYCQQSNEDPLTFGQGTKLEIKRTVAAPSVFIFPPSDEQLKSGTASVVCLLNNFYPREAKVQWKVDNALQSGNSQESVTEQDSKDSTYSLSSTLTLSKADYEKHKVYACEVTHQGLSSPVTKSFNRGEC	–	–	–	–	–	–	1.6 nM	0.00014 s⁻¹	88000 M⁻¹ s⁻¹	binds	–
5F11-45-N297A (antibody, human IgG1, kappa, N297A) heavy: not shown light: DIVLTQSPDSLAVSLGERATINCRASKNVDSYGNSFMHWYQQKPGQPPKLLIYRASNLESGVPDRFSGSGSGTDFTLTISSLQAEDVAVYYCQQSNEDPLTFGQGTKLEIKRTVAAPSVFIFPPSDEQLKSGTASVVCLLNNFYPREAKVQWKVDNALQSGNSQESVTEQDSKDSTYSLSSTLTLSKADYEKHKVYACEVTHQGLSSPVTKSFNRGEC	–	–	–	–	–	–	2.8 nM	0.00022 s⁻¹	80000 M⁻¹ s⁻¹	binds	–
5F11-45-P238K (antibody, human IgG1, kappa) heavy: not shown light: DIVLTQSPDSLAVSLGERATINCRASKNVDSYGNSFMHWYQQKPGQPPKLLIYRASNLESGVPDRFSGSGSGTDFTLTISSLQAEDVAVYYCQQSNEDPLTFGQGTKLEIKRTVAAPSVFIFPPSDEQLKSGTASVVCLLNNFYPREAKVQWKVDNALQSGNSQESVTEQDSKDSTYSLSSTLTLSKADYEKHKVYACEVTHQGLSSPVTKSFNRGEC	10 ng/mL	–	–	–	–	–	3.3 nM	0.00027 s⁻¹	79000 M⁻¹ s⁻¹	binds	–
5F11-45-V11 (antibody, human IgG1, kappa, Control with enhanced selectivity for hCD32b) heavy: QVQLVQSGAEVKKPGSSVKVSCKASGYTFTDLSMHWVRQAPGQGLEWMGYITPSSGYTAYNQKFKGKTTLTADKSTSTAYMELSSLRSEDTAVYYCARLILQRGAYWGQGTLVTVSSASTKGPSVFPLAPSSKSTSGGTAALGCLVKDYFPEPVTVSWNSGALTSGVHTFPAVLQSSGLYSLSSVVTVPSSSLGTQTYICNVNHKPSNTKVDKRVEPKSCDKTHTCPPCPAPELLGDDSVFLFPPKPKDTLMISRTPEVTCVVVDVSDEDGEVKFNWYVDGVEVHNAKTKPREEQYNSTYRVVSVLTVLHQDWLNGKEYKCKVSNKALPRPIEKTISKAKGQPREPQVYTLPPSREEMTKNQVSLTCLVKGFYPSDIAVEWESNGQPENNYKTTPPVLDSDGSFFLYSKLTVDKSRWQQGNVFSCSVMHEALHNHYTQKSLSLSPGK light: DIVLTQSPDSLAVSLGERATINCRASKNVDSYGNSFMHWYQQKPGQPPKLLIYRASNLESGVPDRFSGSGSGTDFTLTISSLQAEDVAVYYCQQSNEDPLTFGQGTKLEIKRTVAAPSVFIFPPSDEQLKSGTASVVCLLNNFYPREAKVQWKVDNALQSGNSQESVTEQDSKDSTYSLSSTLTLSKADYEKHKVYACEVTHQGLSSPVTKSFNRGEC	–	–	–	–	–	–	3.9 nM	0.0003 s⁻¹	79000 M⁻¹ s⁻¹	–	binds
